Measured values taken from article PMC8484351, “Preclinical development of a bispecific TNFα/IL-23 neutralising domain antibody as a novel oral treatment for inflammatory bowel disease” (Scientific Reports, 2021).

T1: Recombinant cynomolgus monkey IL-23 (cynomolgus monkey)
T1 construct: IL-23p19 subunit of cynomolgus monkey IL-23; IL-12p40 subunit of cynomolgus monkey IL-23; also called cIL-23; IL-23 from cynomolgus monkey; source: bought: Fusion Antibodies (custom preparation)
T1 chain 1: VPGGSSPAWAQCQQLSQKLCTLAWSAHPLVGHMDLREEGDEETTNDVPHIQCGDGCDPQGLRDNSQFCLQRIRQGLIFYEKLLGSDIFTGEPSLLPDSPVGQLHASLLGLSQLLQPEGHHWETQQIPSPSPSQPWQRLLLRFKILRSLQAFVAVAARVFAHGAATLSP
T1 chain 2: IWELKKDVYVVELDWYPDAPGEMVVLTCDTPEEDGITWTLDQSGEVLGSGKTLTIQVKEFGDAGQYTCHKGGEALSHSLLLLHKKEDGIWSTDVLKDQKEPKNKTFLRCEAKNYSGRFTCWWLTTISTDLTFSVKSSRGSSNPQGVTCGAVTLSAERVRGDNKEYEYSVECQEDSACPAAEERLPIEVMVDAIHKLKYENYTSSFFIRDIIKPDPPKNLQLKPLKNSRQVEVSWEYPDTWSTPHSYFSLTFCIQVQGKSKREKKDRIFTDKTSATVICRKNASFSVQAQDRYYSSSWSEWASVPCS

T2: Recombinant Human IL-23 (human, UniProt Q9NPF7 20-189; P29460 23-328)
T2 construct: IL-23p19 subunit of human IL-23; IL-12p40 subunit, shared with IL-12; Heterodimer of p19 and p40; also called interleukin-23; source: bought: Sino Biologicals
T2 sequence (looked up) 1: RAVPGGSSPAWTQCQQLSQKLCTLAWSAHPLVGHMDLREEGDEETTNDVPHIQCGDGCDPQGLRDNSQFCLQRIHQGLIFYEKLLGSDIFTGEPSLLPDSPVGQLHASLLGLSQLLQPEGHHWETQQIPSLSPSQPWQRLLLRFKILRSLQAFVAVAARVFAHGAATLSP
T2 sequence (looked up) 2: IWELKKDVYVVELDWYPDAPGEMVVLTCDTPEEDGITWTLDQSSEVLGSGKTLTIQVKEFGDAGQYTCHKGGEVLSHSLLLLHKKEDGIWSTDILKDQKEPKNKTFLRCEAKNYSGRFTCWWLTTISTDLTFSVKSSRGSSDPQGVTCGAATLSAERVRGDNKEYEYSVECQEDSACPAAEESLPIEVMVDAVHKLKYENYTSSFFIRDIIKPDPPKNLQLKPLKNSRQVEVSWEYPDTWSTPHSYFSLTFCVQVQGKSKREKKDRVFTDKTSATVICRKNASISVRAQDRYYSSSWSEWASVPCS

B1: Vorabody V900, anti-IL-23 p19-specific single domain antibody (VHH)
VHH: DVQLVESGGGQVQPGGSLSLSCESSVSIWSFKVMGWFRQVPGKQRELVATITTGGSPDYSDSVKGRFTISRDYDKRTLYLQMNSLKPEDTAVYYCAGRLWAHITSSGHDVWGQGTQVTVSS
notes: 121 amino acids, 13.2 kDa; also called anti-IL-23 (V900); source: S. cerevisiae or Pichia pastoris shake flask cultures, purified (CaptoS ion exchange chromatography)
B2: single domain antibody 12G1, unoptimised anti-IL-23 domain antibody (VHH)
VHH: EVQLVESGGGLVQPGGSLRLSCAASVSIWSFKVMGWYRQVPGKQRELVATITTGGSPDYADSVKGRFTMSRDYDKRTVFLEMDSVKPEDAAVYYCNGRLWAHLTSSGHDVWGQGTRVTVSS
notes: llama-derived, isolated by phage display after immunisation with human IL-23; Parent of V900; also called clone 12G1; not shown: His6, C-terminal, kept; FLAG, C-terminal, kept
B3: Recombinant Human IL-23R-FC (Fc fusion, UniProt Q5VWK5 24-355, looked up)
chain: GITNINCSGHIWVEPATIFKMGMNISIYCQAAIKNCQPRKLHFYKNGIKERFQITRINKTTARLWYKNFLEPHASMYCTAECPKHFQETLICGKDISSGYPPDIPDEVTCVIYEYSGNMTCTWNAGKLTYIDTKYVVHVKSLETEEEQQYLTSSYINISTDSLQGGKKYLVWVQAANALGMEESKQLQIHLDDIVIPSAAVISRAETINATVPKTIIYWDSQTTIEKVSCEMRYKATTNQTWNVKEFDTNFTYVQQSEFYLEPNIKYVFQVRCQETGKRYWQPWSSLFFHKTPETVPQVTSKAFQHDTWNSGLTVASISTGHLTSDNRGDIG
notes: source: bought: R&D systems

How the values were obtained:
[1] = target: T3, Recombinant Human IL-23 (human, UniProt Q9NPF7;P29460); test: cell-based or functional assay
[2] = target: T1, Recombinant cynomolgus monkey IL-23; test: ELISA; cynomolgus monkey IL-23/IL-23R receptor/ligand inhibition ELISA; protocol in the Supplementary Methods; conditions: both partners purified
[3] = target: T3, Recombinant Human IL-23; test: ELISA; human IL-23/IL-23R receptor/ligand inhibition ELISA; block buffer 1% BSA in PBS pH 7.4 with 4% Marvel milk; 0.1 mM PMSF added for trypsin-treated V56B2; protocol in the Supplementary Methods; conditions: both partners purified
[4] = target: T3, Recombinant Human IL-23; test: SPR; Biacore; anti-p40 monoclonal antibody coupled to a CM5 chip and loaded with recombinant human IL-23 at 2 or 0.5 ug/mL; V900 at 0.02, 0.08, 0.3, 1.25 and 5 nM, 300 s on and 300 s off, 30 uL/min; conditions: both partners purified
[5] = target: T2, Recombinant Human IL-23; test: ELISA; human IL-23/IL-23R receptor/ligand inhibition ELISA; block buffer 1% BSA in PBS pH 7.4 with 4% Marvel milk; 0.1 mM PMSF added for trypsin-treated V56B2; protocol in the Supplementary Methods; conditions: both partners purified

Row | Binder | IC50 of inhibition of IL-17 production from murine splenocytes co-stimulated with murine IL-2 and human IL-23 (cellular potency in mouse splenocytes) [1] [nM] | IC50 [2] [nM] | IC50 [3] [nM] | Kd [4] [nM] | binding result [5]
1 | B1 | 10.7 | 0.7 | 0.2 | 0.032 | 
2 | B2 | 9.3 |  | 0.2 |  | 
3 | B3 |  |  |  |  | binds
